From patent publication US20160000910A1 (AC IMMUNE S A, published 2016)

T1: biotinylated Aβ17-40 peptide (biotinylated (position not given))
T1 construct: Peptide from Anaspec
T1 peptide: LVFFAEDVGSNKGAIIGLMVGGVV

B1: mouse monoclonal antibody ACI-11-Ab-9 (antibody, V domains shown)
VH: QVQLQQSDAELVKPGASVKISCKVSGYTFTDHTIHWMKQRPEQGLEWIGYIYPRDGSTKYNEKFKGKATLTADKSSSTAYMQLNSLTSEDSAVYFCARDYGYAFDYWGQGTTLTVSS
VL: QAVVTQESALTTSPGGTVILTCRSSTGAVTTSNYANWVQEKPDHLFTGLIGGTSNRAPGVPVRFSGSLIGDKAALTITGAQTEDDAMYFCALWYSTHYVFGGGTKVTVL
notes: also called clone FG1F9E4; DSM ACC2845
B2: mouse monoclonal antibody ACI-12-Ab-11 (antibody, V domains shown)
VH: B1 VH
VL: B1 VL
notes: also called clone FK2A6A6; DSM ACC2846

Tests used:
[1] = target: T1, biotinylated Aβ17-40 peptide; experiment: ELISA, biotinylated peptide on streptavidin plate
From the text: (§1) The peptides in the peptide library were composed of 8, 9 or 10-mer aa peptides. A biotinylated complete Aβ1-42 peptide (human sequence) was used as positive control (Bachem, Bubendorf, Switzerland). In addition, longer peptides covering Aβ1-28, Aβ17-40, Aβ1-40 and Aβ1-42 were used to define the broader region to which these antibodies may bind. These 4 peptides were also biotinlyated (manufactured by Anaspec and purchased from ANAWA Trading SA, Switzerland). Epitope mapping was done according to the manufacturer's (Mimotopes) instructions. Briefly, Streptavidin coated plates (NUNC, Roskilde, Denmark) were blocked with 0.1% BSA in PBS overnight at 4° C. After washing with PBS-0.05% Tween 20, plates were coated for 1 hour at RT with the different peptides from the library, diluted in 0.1% BSA, 0.1% Sodium Azide in PBS to a final concentration of 10 μM. […] Plates were washed again and incubated with alkaline phosphatase conjugated goat anti mouse IgG (Jackson Immunresearch West Grove, Pa., USA) for 1 h at RT. After final washing, plates were incubated with phosphatase substrate (pNPP, Sigma-Aldrich, St Louis, Mo., USA) and read after 3 hours of incubation at 405 nm using an ELISA plate reader.

[2] = target: T1, biotinylated Aβ17-40 peptide; experiment: ELISA, biotinylated peptide (Anaspec) on streptavidin plate, 10 µg/ml mAb
From the text: as §1

[3] = target: T2, biotinylated Aβ1-40 peptide (biotinylated (position not given)); experiment: as above
T2 construct: Peptide from Anaspec; also called Ab1-40
From the text: as §1

[4] = target: Aβ1-42 library peptide 3; experiment: peptide library ELISA, 10 µg/ml mAb
From the text: as §1

[5] = target: Aβ1-42 library peptide 22; experiment: peptide library ELISA, 10 µg/ml mAb
From the text: as §1

[6] = target: Aβ1-42 library peptide 6; experiment: peptide library ELISA, 10 µg/ml mAb
From the text: as §1

[7] = target: Aβ1-42 library peptide 20; experiment: peptide library ELISA, 10 µg/ml mAb
From the text: as §1

[8] = target: Aβ1-42 library peptide 29; experiment: peptide library ELISA, 10 µg/ml mAb
From the text: as §1

[9] = target: Aβ1-42 library peptide 15; experiment: peptide library ELISA, 10 µg/ml mAb
From the text: as §1

[10] = target: Aβ1-42 library peptide 7; experiment: peptide library ELISA, 10 µg/ml mAb
From the text: as §1

[11] = target: Aβ1-42 library peptide 2; experiment: peptide library ELISA, 10 µg/ml mAb
From the text: as §1

[12] = target: Aβ1-42 library peptide 16; experiment: peptide library ELISA, 10 µg/ml mAb
From the text: as §1

[13] = target: Aβ1-42 library peptide 13; experiment: peptide library ELISA, 10 µg/ml mAb
From the text: as §1

[14] = target: Aβ1-42 library peptide 11; experiment: peptide library ELISA, 10 µg/ml mAb
From the text: as §1

[15] = target: Aβ1-42 library peptide 17; experiment: peptide library ELISA, 10 µg/ml mAb
From the text: as §1

[16] = target: Aβ1-42 library peptide 26; experiment: peptide library ELISA, 10 µg/ml mAb
From the text: as §1

[17] = target: Aβ1-42 library peptide 24; experiment: peptide library ELISA, 10 µg/ml mAb
From the text: as §1

[18] = target: Aβ1-42 library peptide 19; experiment: peptide library ELISA, 10 µg/ml mAb
From the text: as §1

[19] = target: Aβ1-42 library peptide 12; experiment: peptide library ELISA, 10 µg/ml mAb
From the text: as §1

[20] = target: Aβ1-42 library peptide 27; experiment: peptide library ELISA, 10 µg/ml mAb
From the text: as §1

[21] = target: Aβ1-42 library peptide 14; experiment: peptide library ELISA, 10 µg/ml mAb
From the text: as §1

[22] = target: Aβ1-42 library peptide 33; experiment: peptide library ELISA, 10 µg/ml mAb
From the text: as §1

[23] = target: Aβ1-42 library peptide 28; experiment: peptide library ELISA, 10 µg/ml mAb
From the text: as §1

[24] = target: Aβ1-42 library peptide 5; experiment: peptide library ELISA, 10 µg/ml mAb
From the text: as §1

[25] = target: Aβ1-42 library peptide 25; experiment: peptide library ELISA, 10 µg/ml mAb
From the text: as §1

[26] = target: Aβ1-42 library peptide 1; experiment: peptide library ELISA, 10 µg/ml mAb
From the text: as §1

[27] = target: Aβ1-42 library peptide 30; experiment: peptide library ELISA, 10 µg/ml mAb
From the text: as §1

[28] = target: Aβ1-42 library peptide 9; experiment: peptide library ELISA, 10 µg/ml mAb
From the text: as §1

[29] = target: Aβ1-42 library peptide 31; experiment: peptide library ELISA, 10 µg/ml mAb
From the text: as §1

[30] = target: Aβ1-42 library peptide 32; experiment: peptide library ELISA, 10 µg/ml mAb
From the text: as §1

[31] = target: Aβ1-42 library peptide 10; experiment: peptide library ELISA, 10 µg/ml mAb
From the text: as §1

[32] = target: Aβ1-42 library peptide 8; experiment: peptide library ELISA, 10 µg/ml mAb
From the text: as §1

[33] = target: Aβ1-42 library peptide 21; experiment: peptide library ELISA, 10 µg/ml mAb
From the text: as §1

[34] = target: Aβ1-42 library peptide 4; experiment: peptide library ELISA, 10 µg/ml mAb
From the text: as §1

[35] = target: Aβ1-42 library peptide 18; experiment: peptide library ELISA, 10 µg/ml mAb
From the text: as §1

[36] = target: Aβ1-42 library peptide 23; experiment: peptide library ELISA, 10 µg/ml mAb
From the text: as §1

[37] = target: Aβ1-42 peptide (Thioflavin T assay); experiment: cell-based or functional assay
Aβ1-42 peptide (Thioflavin T assay), sequence (peptide, as listed by the source): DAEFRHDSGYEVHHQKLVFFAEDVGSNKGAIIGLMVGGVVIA

[38] = target: T3, biotinylated complete Aβ1-42 peptide (human sequence) (human, biotinylated (position not given)); experiment: peptide library ELISA, complete Aβ1-42 (Bachem) as positive control, 10 µg/ml mAb
T3 construct: Same peptide from two suppliers (1-42A Anaspec, 1-42B Bachem); the supplier is named under assay; also called Ab1-42; 1-42A (Anaspec)
T3 sequence (peptide, as listed by the source): as above
From the text: as §1

Binder	O.D. after background subtraction (mean) [2] [O.D.]	O.D. after background subtraction (mean) [3] [O.D.]	O.D. [4] [O.D.]	O.D. [5] [O.D.]	O.D. [6] [O.D.]	O.D. [7] [O.D.]	O.D. [8] [O.D.]	O.D. [9] [O.D.]	O.D. [10] [O.D.]	O.D. [11] [O.D.]	O.D. [12] [O.D.]	O.D. [13] [O.D.]	O.D. [14] [O.D.]	O.D. [15] [O.D.]	O.D. [16] [O.D.]	O.D. [17] [O.D.]	O.D. [18] [O.D.]	O.D. [19] [O.D.]	O.D. [20] [O.D.]	O.D. [21] [O.D.]	also measured
B1	0.02	1.02	0.12	0.1	0.11	0.1	0.2	0.14	0.11	0.1	0.14	0.17	0.11	0.13	0.12	0.1	0.1	0.24	0.13	0.16	binding result [1]: no binding (tested: 10 µg/ml); O.D. [22]: 0.11 O.D.; O.D. [23]: 0.12 O.D.; O.D. [24]: 0.11 O.D.; O.D. [25]: 0.11 O.D.; O.D. [26]: 0.1 O.D.; O.D. [27]: 0.11 O.D.; O.D. [28]: 0.11 O.D.; O.D. [29]: 0.12 O.D.; O.D. [30]: 0.12 O.D.; O.D. [31]: 0.13 O.D.; O.D. [32]: 0.11 O.D.; O.D. [33]: 0.1 O.D.; O.D. [34]: 0.11 O.D.; O.D. [35]: 0.11 O.D.; O.D. [36]: 0.11 O.D.; disaggregation of pre-aggregated Aβ1-42, Thioflavin T fluorescence, antibody to Aβ1-42 molar ratio 1:10 [37]: 52%; disaggregation of pre-aggregated Aβ1-42, Thioflavin T fluorescence, antibody to Aβ1-42 molar ratio 1:100 [37]: 22%; inhibition of Aβ1-42 aggregation, Thioflavin T fluorescence, antibody to Aβ1-42 molar ratio 1:10 [37]: 69%; inhibition of Aβ1-42 aggregation, Thioflavin T fluorescence, antibody to Aβ1-42 molar ratio 1:100 [37]: 34%
B2	-0.02	0.62	0.11	0.1	0.1	0.1	0.11	0.1	0.1	0.1	0.14	0.15	0.11	0.12	0.12	0.1	0.1	0.21	0.12	0.12	O.D. [22]: 0.11 O.D.; O.D. [23]: 0.11 O.D.; O.D. [24]: 0.1 O.D.; O.D. [25]: 0.11 O.D.; O.D. [26]: 0.1 O.D.; O.D. [27]: 0.11 O.D.; O.D. [28]: 0.1 O.D.; O.D. [29]: 0.11 O.D.; O.D. [30]: 0.11 O.D.; O.D. [31]: 0.1 O.D.; O.D. [32]: 0.1 O.D.; O.D. [33]: 0.09 O.D.; O.D. [34]: 0.1 O.D.; O.D. [35]: 0.1 O.D.; O.D. [36]: 0.1 O.D.; O.D. [38]: 0.69 O.D.; disaggregation of pre-aggregated Aβ1-42, Thioflavin T fluorescence, antibody to Aβ1-42 molar ratio 1:10 [37]: 54%; disaggregation of pre-aggregated Aβ1-42, Thioflavin T fluorescence, antibody to Aβ1-42 molar ratio 1:100 [37]: 18%; inhibition of Aβ1-42 aggregation, Thioflavin T fluorescence, antibody to Aβ1-42 molar ratio 1:10 [37]: 66%; inhibition of Aβ1-42 aggregation, Thioflavin T fluorescence, antibody to Aβ1-42 molar ratio 1:100 [37]: 30%
